The values below come from PMC5856820, “HIV envelope V3 region mimic embodies key features of a broadly neutralizing antibody lineage epitope” (Nature Communications, 2018).

In test [1] the target is biotinylated Man9-V3 glycopeptide (HIV-1 (strain JRFL)). Nature of the test: BLI; BLItz instrument; 0.2 mg/ml biotinylated Man9-V3 immobilised on a streptavidin biosensor; DH270.6 Fab at 40, 15, 5, 1.5 and 0.25 μM; 22 °C; duplicate measurements; kd calculated as the product of ka and KD.
Test [2] deals with DH270.6 Fab (human). Nature of the test: BLI. Background: In BLI a coated tip is dipped into the sample, and binding shifts an interference pattern.
Another test has as its system wild-type 92BR SOSIP.664. In words: Biolayer interferometry (Octet QKe), Fab binding to wild-type 92BR SOSIP.664 Env trimer. To be noted: for Kd / change in Env interaction/affinity of DH270.6 mutant relative to DH270.6: Table 2; for Kd: Fab 0.2 mg/ml immobilized on anti-Human Fab-CH1 biosensor, trimer 0.1 μM to 0.6 μM, association and dissociation 5 min each, 1000 rpm, duplicate measurements, error SEM, read-out: KD of Fab complexes with wild-type 92BR SOSIP.664; for change in Env interaction/affinity of DH270.6 mutant relative to DH270.6: 92BR SOSIP.664 Env trimer. On the set-up: species or system HIV-1. As to the method:
(§1) The SOSIP.664 constructs were cloned into the same pVRC-8400 vector described above for Fabs and any mutations were added by site-directed mutagenesis using manufacturer’s protocols (Stratagene). SOSIP.664 constructs were transfected along with a plasmid encoding the cellular protease furin at a 3:1 Env:furin ratio in 293F cells, adapted to grow in suspension from HEK293T cells (ATCC: CRL-3216). The expression construct of furin was kindly provided by Bing Chen (Boston Children’s Hospital, Boston, MA). The cells were allowed to express soluble SOSIP trimers for 5–7 days, and gp120 monomers were expressed for 5 days. Culture supernatants were collected and cells were removed by centrifugation at 3800 × g for 20 min, and filtered with a 0.2 µm pore size filter. Envs were purified by flowing the supernatant over a lectin (Galanthus nivalis) affinity chromatography column overnight at 4 °C. The lectin column was washed with 1× PBS, followed by a second wash with 1× PBS and 0.5 M NaCl and proteins were eluted with 1× PBS supplemented with 0.5 M methyl-α-D-mannopyranoside and 0.5 M NaCl. The eluate was concentrated and loaded onto a Superdex 200 10/300 GL column (GE Life Sciences) pre-equilibrated in a buffer of 2.5 mM Tris, pH 7.5, 350 mM NaCl and 0.02% sodium azide for BLI and in 10 mM Hepes, pH 8.0, 150 mM NaCl and 0.02% sodium azide for negative stain EM, to separate the trimer-size oligomers from aggregates and gp140 monomers and to separate gp120 monomers from aggregates.
Kinetic measurements of Fab binding to the SOSIP.664 constructs were carried out using the Octet QK^e system (ForteBio); 0.2 mg/ml of each His-tagged Fab was immobilized onto a anti-Human Fab-CH1 biosensor until it reached saturation. The SOSIP.664 trimers were tested at concentrations of 0.1 μM to 0.6 μM. A reference sample of buffer alone was used to account for any signal drift that was observed during the experiment. Association and dissociation were each monitored for 5 min. All experiments were conducted in the Octet instrument with agitation at 1000 rpm.
Analyses were performed using nonlinear regression curve fitting using the Graphpad Prism software, version 7.

In the next test the test system is 92BR SOSIP.664 trimer. In words: Negative stain EM of DH270.6 Fab-92BR SOSIP.664 complex. On the set-up: species or system HIV-1. To be noted: negatively stained EM; 6 molar excess of Fab, 4 °C, 1.5 h. The protocol: A 2.5 µl aliquot containing ∼0.01 mg/ml of the Fab-92BR SOSIP.664 complex was applied for 30 s onto a carbon-coated 400 Cu mesh grid that had been glow discharged at 5 mA for 2 min, followed by negative staining with 0.7% uranyl formate for 20 s. Samples were imaged using a FEI Tecnai T12 microscope operated at 120 kV and a magnification of ×52,000, yielding a pixel size of 2.13 Å at the specimen plane. Images were acquired with a Gatan 2 K CCD camera using a nominal defocus of 1500 nm at 10° tilt increments, up to 50°. The tilts provided additional particle orientations to improve the image reconstructions.
Particles were picked semi-automatically using EMAN2 and put into a particle stack. Initial, reference-free, two-dimensional (2D) class averages were calculated, and particles corresponding to complexes (with three Fabs bound) were selected into a substack for determination of an initial model. The initial model was calculated in EMAN2 using threefold symmetry and EMAN2 was used for subsequent refinement using threefold symmetry. In total, 12,941 particles were included in the final reconstruction for the 3D average of 92BR SOSIP.664 trimer complex with DH270.6. The resolution of the final model was estimated using a Fourier Shell Correlation (FSC) cut-off of 0.5. […]

Test [3] concerns HIV-1 (autologous and heterologous viruses). To be noted: cited from earlier work. The text has this: A synthetic V3-loop glycopeptide (“Man9-V3”), described recently, presents the conformational epitopes needed for the binding of N332 glycan-dependent bnAbs[24], [25]. The peptide design derives from the JRFL mini-V3 gp120 outer domain, used previously for determining a crystal structure with the Fab of bnAb PGT128[9]. The synthetic V3 glycopeptide, which has Man9 glycans (Man9GlcNAc2) at N332 and N301[24] and a 14-residue tip deleted, was used to identify the V3-glycan bnAb DH270.6 (12.9% mutated nucleotides and 71% neutralization breadth[12]) by labeling the B-cell receptor (BCR) on cells fr ... || We describe here a high-resolution crystal structure of “Man9-V3” bound with the single chain variable fragment (scFv) of the N332-glycan dependent bnAb, DH270.6. We have also determined a structure of the Fab of a clonally related member of this lineage, DH270.3 (11.8% mutated nucleotides and 42% neutralization breadth), in complex with a synthetic Man9 glycan. These clonally related antibodies have similar numbers of mutation, but their neutralization breadth and potency differ substantially. Through structural analysis of these two related antibodies, we can account for differences in b ... || Somatic hypermutation is biased by the preference of the activation-induced cytidine deaminase (AID) for certain microsequence motifs (“hot spots”)[28], [29]. […]

In test [4] the test system is R327A mutant of 92BR SOSIP.664 Env. Nature of the test: Biolayer interferometry (Octet QKe), DH270.6 Fab binding to R327A mutant 92BR SOSIP.664 Env trimer. Set-up: species or system HIV-1. As to the method: as §1, with “The eluate was concentrated and loaded onto a Superdex 200 10/300 GL column (GE Life Sciences) pre-equilibrated in a buffer of 2.5 mM Tris, pH 7.5, 350 mM NaCl and 0.02% sodium azide for BLI and in 10 mM Hepes, pH 8.0, 150 mM NaCl and 0.02% sodium azide for negative stain EM, to separate the trimer-size oligomers from aggregates and gp140 monomers and to separate gp120 monomers from aggregates.” left out
Kinetic measurements of Fab binding to the SOSIP.664 constructs were carried out using the Octet QK^e system (ForteBio); 0.2 mg/ml of each His-tagged Fab was immobilized onto a anti-Human Fab-CH1 biosensor until it reached saturation. […] Association and dissociation were each monitored for 5 min. […]

Test [5] addresses DH270.6 Fab (human). In words: BLI; Octet QKe; 0.2 mg/ml His-tagged Fab immobilised on an anti-Human Fab-CH1 biosensor; SOSIP.664 trimers at 0.1 to 0.6 μM; association and dissociation 5 min each; agitation 1000 rpm.
The target of test [6] is DH270.6 Fab T98R (heavy chain) (human). Nature of the test: BLI.
Test [7] deals with DH270.6 Fab Y48L (light chain) (human). Nature of the test: BLI.
The target in test [8] is DH270.6 Fab S103G (heavy chain) (human). In words: BLI.
Test [9] has as its target DH270.6 Fab (human). Nature of the test: BLI; Octet QKe; 0.2 mg/ml His-tagged Fab immobilised on an anti-Human Fab-CH1 biosensor; SOSIP.664 trimers at 0.1 to 0.6 μM; association and dissociation 5 min each; agitation 1000 rpm. The source holds these as a separate data set.

A word on the Kd: it is the equilibrium constant for the complex coming apart.

Regarding DH270.6 Fab, in test [1], the dissociation constant (Kd) was 7000 nM.
In turn, “92BR SOSIP.664 Env trimer, R327A mutant (complex)” gave a dissociation constant (Kd) with DH270.6 Fab (human) [2] of 7.64 nM.
As to “DH270.6 T98RH: DH270.6 Fab with heavy-chain T98 reverted to Arg”, the “binding with 92BR SOSIP.664 Env trimer” value in the test on wild-type 92BR SOSIP.664 (reversion mutant of DH270.6, Fig. 4b) is given as “only negligible residual binding”.
Regarding “DH270.6: V3-glycan broadly neutralizing antibody of DH270 lineage from HIV-1 infected donor CH848”, in the test on 92BR SOSIP.664 trimer, the “DH270.6 Fabs bound per trimer” value is “three”. In addition, in test [3], the neutralization breadth is on record as 71%. The dissociation constant Kd came to 11 ± 1 nM at wild-type 92BR SOSIP.664 and 7.64 nM in [4] (read-out: KD, R327A mutant 92BR SOSIP.664 Env tested with DH270.6 Fab, Fig. 4a legend, Fab immobilized on anti-Human Fab-CH1 biosensor, trimer 0.1 μM to 0.6 μM). Also, in test [4] (Fig. 4a, compared with wild-type counterpart), the “affinity of Env R327A mutant for DH270.6 relative to wild-type” value is recorded as “only a slightly lower affinity”.
In the case of “92BR SOSIP.664 Env trimer, wild type (complex)”, the Kd in the test with DH270.6 Fab (human) [5] was determined as 2.76 nM; in test [6], 46 nM; in [7] it was 44 nM; in [8], 19 nM; with DH270.6 Fab (human) [9], 11 nM.
For “DH270.6 S103GH: DH270.6 Fab with heavy-chain S103G mutation”, the “change in Env interaction/affinity of DH270.6 mutant relative to DH270.6” value with wild-type 92BR SOSIP.664 (Fig. 4b) was “weakens the Env interaction twofold”. On wild-type 92BR SOSIP.664, the Kd amounted to 19 ± 1 nM.

B1: DH270.6 Y48LL: DH270.6 Fab with light-chain Y48 mutated to leucine, as in the UCA (antibody, V domains shown)
VH: QVQLVQSGAQMKNPGASVKVSCAPSGYTFTDFYIHWLRQAPGQGLQWMGWMNPQTGRTNTARNFQGRVTMTRDTSIGTAYMELRSLTSDDTAIYYCTTGGWISLYYDSSYYPNFDHWGQGTLLTVSS
VL: QSALTQPASVSGSPGQSITISCTGTKYDVGSHDLVSWYQQYPGKVPKLMIYEVNKRPSGVSNRFSGSKSGNTASLTISGLRAEDEADYYCCSFGGSATVVCGGGTKVTVL
As for B1, the “change in Env interaction/affinity of DH270.6 mutant relative to DH270.6” value in the test on wild-type 92BR SOSIP.664 (Fig. 4b) was “fourfold lower affinity”. In addition, the Kd at wild-type 92BR SOSIP.664 amounted to 44 ± 2 nM.
